Results taken from article PMC8117407 (Science (New York, N.Y.), 2020).

Target: the molecule itself
Test: dual-colour single-molecule co-tracking

| Protein | ligand-independent dimerization relative to ligand-induced dimerization |
| --- | --- |
| mXFP-EpoR coexpressed with JAK2 V617F-mEGFP (complex) chain 1: APPPNLPDPKFESKAALLAARGPEELLCFTERLEDLVCFWEEAASAGVGPGNYSFSYQLEDEPWKLCRLHQAPTARGAVRFWCSLPTADTSSFVPLELRVTAASGAPRYHRVIHINEVVLLDAPVGLVARLADESGHVVLRWLPPPETPMTSHIRYEVDVSAGNGAGSVQRVEILEGRTECVLSNLRGRTRYTFAVRARMAEPSFGGFWSAWSEPVSLLTPSDLDPLILTLSLILVVILVLLTVLALLSHRRALKQKIWPGIPSPESEFEGLFTTHKGNFQLWLYQNDGCLWWSPCTPFTEDPPASLEVLSERCWGTMQAVEPGTDDEGPLLEPVGSEHAQDTYLVLDKWLLPRNPPSEDLPGPGGSVDIVAMDEGSEASSCSSALASKPSPEGASAASFEYTILDPSSQLLRPWTLCPELPPTPPHLKYLYLVVSDSGISTDYSSGDSQGAQGGLSDGPYSNPYENSLIPAAEPLPPSYVACS chain 2: MGMACLTMTEMEGTSTSSIYQNGDISGNANSMKQIDPVLQVYLYHSLGKSEADYLTFPSGEYVAEEICIAASKACGITPVYHNMFALMSETERIWYPPNHVFHIDESTRHNVLYRIRFYFPRWYCSGSNRAYRHGISRGAEAPLLDDFVMSYLFAQWRHDFVHGWIKVPVTHETQEECLGMAVLDMMRIAKENDQTPLAIYNSISYKTFLPKCIRAKIQDYHILTRKRIRYRFRRFIQQFSQCKATARNLKLKYLINLETLQSAFYTEKFEVKEPGSGPSGEEIFATIIITGNGGIQWSRGKHKESETLTEQDLQLYCDFPNIIDVSIKQANQEGSNESRVVTIHKQDGKNLEIELSSLREALSFVSLIDGYYRLTADAHHYLCKEVAPPAVLENIQSNCHGPISMDFAISKLKKAGNQTGLYVLRCSPKDFNKYFLTFAVERENVIEYKHCLITKNENEEYNLSGTKKNFSSLKDLLNCYQMETVRSDNIIFQFTKCCPPKPKDKSNLLVFRTNGVSDVPTSPTLQRPTHMNQMVFHKIRNEDLIFNESLGQGTFTKIFKGVRREVGDYGQLHETEVLLKVLDKAHRNYSESFFEAASMMSKLSHKHLVLNYGVCFCGDENILVQEFVKFGSLDTYLKKNKNCINILWKLEVAKQLAWAMHFLEENTLIHGNVCAKNILLIREEDRKTGNPPFIKLSDPGISITVLPKDILQERIPWVPPECIENPKNLNLATDKWSFGTTLWEICSGGDKPLSALDSQRKLQFYEDRHQLPAPKWAELANLINNCMDYEPDFRPSFRAIIRDLNSLFTPDYELLTENDMLPNMRIGALGFSGAFEDRDPTQFEERHLKFLQQLGKGNFGSVEMCRYDPLQDNTGEVVAVKKLQHSTEEHLRDFEREIEILKSLQHDNIVKYKGVCYSAGRRNLKLIMEYLPYGSLRDYLQKHKERIDHIKLLQYTSQICKGMEYLGTKRYIHRDLATRNILVENENRVKIGDFGLTKVLPQDKEYYKVKEPGESPIFWYAPESLTESKFSVASDVWSFGVVLYELFTYIEKSKSPPAEFMRMIGNDKQGQMIVFHLIELLKNNGRLPRPDGCPDEIYMIMTECWNNNVNQRPSFRDLALRVDQIRDNMAG | ~25% |
| mXFP-GHR coexpressed with JAK2 V617F-mEGFP (complex) chain 1: FSGSEATAAILSRAPWSLQSVNPGLKTNSSKEPKFTKCRSPERETFSCHWTDEVHHGTKNLGPIQLFYTRRNTQEWTQEWKECPDYVSAGENSCYFNSSFTSIWIPYCIKLTSNGGTVDEKCFSVDEIVQPDPPIALNWTLLNVSLTGIHADIQVRWEAPRNADIQKGWMVLEYELQYKEVNETKWKMMDPILTTSVPVYSLKVDKEYEVRVRSKQRNSGNYGEFSEVLYVTLPQMSQFTCEEDFYFPWLLIIIFGIFGLTVMLFVFLFSKQQRIKMLILPPVPVPKIKGIDPDLLKEGKLEEVNTILAIHDSYKPEFHSDDSWVEFIELDIDEPDEKTEESDTDRLLSSDHEKSHSNLGVKDGDSGRTSCCEPDILETDFNANDIHEGTSEVAQPQRLKGEADLLCLDQKNQNNSPYHDACPATQQPSVIQAEKNKPQPLPTEGAESTHQAAHIQLSNPSSLSNIDFYAQVSDITPAGSVVLSPGQKNKAGMSQCDMHPEMVSLCQENFLMDNAYFCEADAKKCIPVAPHIKVESHIQPSLNQEDIYITTESLTTAAGRPGTGEHVPGSEMPVPDYTSIHIVQSPQGLILNATALPLPDKEFLSSCGYVSTDQLNKIMP chain 2: MGMACLTMTEMEGTSTSSIYQNGDISGNANSMKQIDPVLQVYLYHSLGKSEADYLTFPSGEYVAEEICIAASKACGITPVYHNMFALMSETERIWYPPNHVFHIDESTRHNVLYRIRFYFPRWYCSGSNRAYRHGISRGAEAPLLDDFVMSYLFAQWRHDFVHGWIKVPVTHETQEECLGMAVLDMMRIAKENDQTPLAIYNSISYKTFLPKCIRAKIQDYHILTRKRIRYRFRRFIQQFSQCKATARNLKLKYLINLETLQSAFYTEKFEVKEPGSGPSGEEIFATIIITGNGGIQWSRGKHKESETLTEQDLQLYCDFPNIIDVSIKQANQEGSNESRVVTIHKQDGKNLEIELSSLREALSFVSLIDGYYRLTADAHHYLCKEVAPPAVLENIQSNCHGPISMDFAISKLKKAGNQTGLYVLRCSPKDFNKYFLTFAVERENVIEYKHCLITKNENEEYNLSGTKKNFSSLKDLLNCYQMETVRSDNIIFQFTKCCPPKPKDKSNLLVFRTNGVSDVPTSPTLQRPTHMNQMVFHKIRNEDLIFNESLGQGTFTKIFKGVRREVGDYGQLHETEVLLKVLDKAHRNYSESFFEAASMMSKLSHKHLVLNYGVCFCGDENILVQEFVKFGSLDTYLKKNKNCINILWKLEVAKQLAWAMHFLEENTLIHGNVCAKNILLIREEDRKTGNPPFIKLSDPGISITVLPKDILQERIPWVPPECIENPKNLNLATDKWSFGTTLWEICSGGDKPLSALDSQRKLQFYEDRHQLPAPKWAELANLINNCMDYEPDFRPSFRAIIRDLNSLFTPDYELLTENDMLPNMRIGALGFSGAFEDRDPTQFEERHLKFLQQLGKGNFGSVEMCRYDPLQDNTGEVVAVKKLQHSTEEHLRDFEREIEILKSLQHDNIVKYKGVCYSAGRRNLKLIMEYLPYGSLRDYLQKHKERIDHIKLLQYTSQICKGMEYLGTKRYIHRDLATRNILVENENRVKIGDFGLTKVLPQDKEYYKVKEPGESPIFWYAPESLTESKFSVASDVWSFGVVLYELFTYIEKSKSPPAEFMRMIGNDKQGQMIVFHLIELLKNNGRLPRPDGCPDEIYMIMTECWNNNVNQRPSFRDLALRVDQIRDNMAG | ~10% |
